From US20240209106A1 (BEIGENE SWITZERLAND, published 2024)
Read-outs that look alike come from different tables or passages of the source.

T1: human CEA on cells (human, UniProt P06731 35-685)
T1 construct: whole, on cells; also called CT26/CEA; MKN45
T1 sequence (looked up): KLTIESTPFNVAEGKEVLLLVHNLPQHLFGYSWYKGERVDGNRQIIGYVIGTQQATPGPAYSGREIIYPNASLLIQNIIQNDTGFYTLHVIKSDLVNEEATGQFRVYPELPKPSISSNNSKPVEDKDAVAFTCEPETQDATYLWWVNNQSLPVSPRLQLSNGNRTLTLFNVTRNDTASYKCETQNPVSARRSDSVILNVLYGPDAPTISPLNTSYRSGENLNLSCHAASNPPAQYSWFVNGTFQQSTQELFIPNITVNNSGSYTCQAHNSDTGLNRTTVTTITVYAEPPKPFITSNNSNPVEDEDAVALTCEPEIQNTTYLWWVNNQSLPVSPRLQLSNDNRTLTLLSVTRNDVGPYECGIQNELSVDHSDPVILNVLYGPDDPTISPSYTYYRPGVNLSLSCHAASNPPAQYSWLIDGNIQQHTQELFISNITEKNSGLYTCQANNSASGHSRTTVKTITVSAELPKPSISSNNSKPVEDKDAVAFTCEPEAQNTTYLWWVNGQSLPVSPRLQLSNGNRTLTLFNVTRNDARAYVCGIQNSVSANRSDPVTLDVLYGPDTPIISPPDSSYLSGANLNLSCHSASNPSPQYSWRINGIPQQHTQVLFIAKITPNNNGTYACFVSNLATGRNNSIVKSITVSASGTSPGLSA

B1: A-CD137×CEA (bispecific antibody, human IgG1, kappa)
heavy: QVQLVQSGAEVKKPGASVKVSCKASGYIFTSYYLHWVRQAPGQGLEWIGYINPQTGKTSYAQKFQGRVTMTRDTSTSTVYMELSSLRSEDTAVYYCAREYGNYNYPLDYWGQGTLVTVSSASTKGPSVFPLAPSSKSTSGGTAALGCLVKDYFPEPVTVSWNSGALTSGVHTFPAVLQSSGLYSLSSVVTVPSSSLGTQTYICNVNHKPSNTKVDKKVEPKSCDKTHTCPPCPAPPAAGPSVFLFPPKPKDTLMISRTPEVTCVVVDVSHEDPEVKFNWYVDGVEVHNAKTKPREEQYNSTYRVVSVLTVLHQDWLNGKEYKCKVSNKALAAPIEKTISKAKGQPREPQVYTLPPSREEMTKNQVSLTCLVKGFYPSDIAVEWESNGQPENNYKTTPPVLDSDGSFFLYSKLTVDKSRWQQGNVFSCSVMHEALHNHYTQKSLSLSPGKGGGGSEVQLLESGGGLVQPGGSLRLSCAASGFMLSAEDVGWVRQAPGKGLEWVSAILDFGGSTYYADSVKGRFTISRDNSKNTLYLQMNSLRAEDTAVYYCARVVYHAGGGVTFDYWGQGTLVTVSS
light: DIQMTQSPSSLSASVGDRVTITCRASENQYGYLAWYQQKPGKVPKLLIYNYKNLVEGVPSRFSGSGSGTDFTLTISSLQPEDVATYYCQHHLGTPYTFGQGTKVEIKRTVAAPSVFIFPPSDEQLKSGTASVVCLLNNFYPREAKVQWKVDNALQSGNSQESVTEQDSKDSTYSLSSTLTLSKADYEKHKVYACEVTHQGLSSPVTKSFNRGEC
notes: Symmetric IgG-like; inert Fc; also called Format A
B2: D-CD137×CEA (bispecific antibody, human IgG1, kappa)
heavy: EVQLLESGGGLVQPGGSLRLSCAASGFMLSAEDVGWVRQAPGKGLEWVSAILDFGGSTYYADSVKGRFTISRDNSKNTLYLQMNSLRAEDTAVYYCARVVYHAGGGVTFDYWGQGTLVTVSSSGGGGSQVQLVQSGAEVKKPGASVKVSCKASGYIFTSYYLHWVRQAPGQGLEWIGYINPQTGKTSYAQKFQGRVTMTRDTSTSTVYMELSSLRSEDTAVYYCAREYGNYNYPLDYWGQGTLVTVSSASTKGPSVFPLAPSSKSTSGGTAALGCLVKDYFPEPVTVSWNSGALTSGVHTFPAVLQSSGLYSLSSVVTVPSSSLGTQTYICNVNHKPSNTKVDKKVEPKSCDKTHTCPPCPAPPAAGPSVFLFPPKPKDTLMISRTPEVTCVVVDVSHEDPEVKFNWYVDGVEVHNAKTKPREEQYNSTYRVVSVLTVLHQDWLNGKEYKCKVSNKALAAPIEKTISKAKGQPREPQVYTLPPSREEMTKNQVSLTCLVKGFYPSDIAVEWESNGQPENNYKTTPPVLDSDGSFFLYSKLTVDKSRWQQGNVFSCSVMHEALHNHYTQKSLSLSPGK
light: DIQMTQSPSSLSASVGDRVTITCRASENQYGYLAWYQQKPGKVPKLLIYNYKNLVEGVPSRFSGSGSGTDFTLTISSLQPEDVATYYCQHHLGTPYTFGQGTKVEIKRTVAAPSVFIFPPSDEQLKSGTASVVCLLNNFYPREAKVQWKVDNALQSGNSQESVTEQDSKDSTYSLSSTLTLSKADYEKHKVYACEVTHQGLSSPVTKSFNRGEC
notes: Symmetric IgG-like; also called Format D
B3: Format A-BGA-7556 (bispecific antibody, human IgG1, kappa)
heavy: QVQLVQSGAEVKKPGASVKVSCKASGYIFTSYYLHWVRQAPGQGLEWIGYINPQTGKTSYAQKFQGRVTMTRDTSTSTVYMELSSLRSEDTAVYYCAREYGNYNYPLDYWGQGTLVTVSSASTKGPSVFPLAPSSKSTSGGTAALGCLVKDYFPEPVTVSWNSGALTSGVHTFPAVLQSSGLYSLSSVVTVPSSSLGTQTYICNVNHKPSNTKVDKKVEPKSCDKTHTCPPCPAPPAAGPSVFLFPPKPKDTLMISRTPEVTCVVVDVSHEDPEVKFNWYVDGVEVHNAKTKPREEQYNSTYRVVSVLTVLHQDWLNGKEYKCKVSNKALAAPIEKTISKAKGQPREPQVYTLPPSREEMTKNQVSLTCLVKGFYPSDIAVEWESNGQPENNYKTTPPVLDSDGSFFLYSKLTVDKSRWQQGNVFSCSVMHEALHNHYTQKSLSLSPGKGGGGSEVQLLESGGGLVQPGGSLRLSCAASGFTLSAEDVGWVRQAPGKGLEWVSAILDFGGSTYYAESVKGRFTISRDNAKNTLYLQMSSLRAEDTAVYYCARVVYHAGGGVTFDYRGQGTQVTVSS
light: DIQMTQSPSSLSASVGDRVTITCRASENQYGYLAWYQQKPGKVPKLLIYNYKNLVEGVPSRFSGSGSGTDFTLTISSLQPEDVATYYCQHHLGTPYTFGQGTKVEIKRTVAAPSVFIFPPSDEQLKSGTASVVCLLNNFYPREAKVQWKVDNALQSGNSQESVTEQDSKDSTYSLSSTLTLSKADYEKHKVYACEVTHQGLSSPVTKSFNRGEC
notes: Light chain by the description of Format A; also called BGA-7556 in Format A-CD137 × CEA
B4: Format A - BGA-9442 (bispecific antibody, human IgG1, kappa)
heavy: QVQLVQSGAEVKKPGASVKVSCKASGYIFTSYYLHWVRQAPGQGLEWIGYINPQTGKTSYAQKFQGRVTMTRDTSTSTVYMELSSLRSEDTAVYYCAREYGNYNYPLDYWGQGTLVTVSSASTKGPSVFPLAPSSKSTSGGTAALGCLVKDYFPEPVTVSWNSGALTSGVHTFPAVLQSSGLYSLSSVVTVPSSSLGTQTYICNVNHKPSNTKVDKKVEPKSCDKTHTCPPCPAPPAAGPSVFLFPPKPKDTLMISRTPEVTCVVVDVSHEDPEVKFNWYVDGVEVHNAKTKPREEQYNSTYRVVSVLTVLHQDWLNGKEYKCKVSNKALAAPIEKTISKAKGQPREPQVYTLPPSREEMTKNQVSLTCLVKGFYPSDIAVEWESNGQPENNYKTTPPVLDSDGSFFLYSKLTVDKSRWQQGNVFSCSVMHEALHNHYTQKSLSLSPGKGGGGSEVQLLESGGGLVQPGGSLRLSCAASGFTISAEDVGWVRQAPGKGLEWVSAILDSGGSTYYAESVKGRFTISRDNAKNTLYLQMSSLRAEDTAVYYCARYVYHAGGGVTFDLRGQGTQVTVSS
light: DIQMTQSPSSLSASVGDRVTITCRASENQYGYLAWYQQKPGKVPKLLIYNYKNLVEGVPSRFSGSGSGTDFTLTISSLQPEDVATYYCQHHLGTPYTFGQGTKVEIKRTVAAPSVFIFPPSDEQLKSGTASVVCLLNNFYPREAKVQWKVDNALQSGNSQESVTEQDSKDSTYSLSSTLTLSKADYEKHKVYACEVTHQGLSSPVTKSFNRGEC
notes: Light chain by the description of Format A
B5: Format A - BGA-3386 (bispecific antibody, human IgG1, kappa)
heavy: QVQLVQSGAEVKKPGASVKVSCKASGYIFTSYYLHWVRQAPGQGLEWIGYINPQTGKTSYAQKFQGRVTMTRDTSTSTVYMELSSLRSEDTAVYYCAREYGNYNYPLDYWGQGTLVTVSSASTKGPSVFPLAPSSKSTSGGTAALGCLVKDYFPEPVTVSWNSGALTSGVHTFPAVLQSSGLYSLSSVVTVPSSSLGTQTYICNVNHKPSNTKVDKKVEPKSCDKTHTCPPCPAPPAAGPSVFLFPPKPKDTLMISRTPEVTCVVVDVSHEDPEVKFNWYVDGVEVHNAKTKPREEQYNSTYRVVSVLTVLHQDWLNGKEYKCKVSNKALAAPIEKTISKAKGQPREPQVYTLPPSREEMTKNQVSLTCLVKGFYPSDIAVEWESNGQPENNYKTTPPVLDSDGSFFLYSKLTVDKSRWQQGNVFSCSVMHEALHNHYTQKSLSLSPGKGGGGSEVQLLESGGGLVQPGGSLRLSCAASGFTVSAEDVGWVRQAPGKGLEWVSAILDKGGSTYYAESVKGRFTISRDNAKNTLYLQMSSLRAEDTAVYYCARIVYHAGGGVTFDTWGQGTLVTVSS
light: DIQMTQSPSSLSASVGDRVTITCRASENQYGYLAWYQQKPGKVPKLLIYNYKNLVEGVPSRFSGSGSGTDFTLTISSLQPEDVATYYCQHHLGTPYTFGQGTKVEIKRTVAAPSVFIFPPSDEQLKSGTASVVCLLNNFYPREAKVQWKVDNALQSGNSQESVTEQDSKDSTYSLSSTLTLSKADYEKHKVYACEVTHQGLSSPVTKSFNRGEC
notes: as for B4

Assays:
[1] = molecular target: human CD137 ECD-mIgG2a (human); experiment: SPR, human CD137 ECD-mIgG2a
Sequence of human CD137 ECD-mIgG2a (human) (chain, as listed by the source limits assumed): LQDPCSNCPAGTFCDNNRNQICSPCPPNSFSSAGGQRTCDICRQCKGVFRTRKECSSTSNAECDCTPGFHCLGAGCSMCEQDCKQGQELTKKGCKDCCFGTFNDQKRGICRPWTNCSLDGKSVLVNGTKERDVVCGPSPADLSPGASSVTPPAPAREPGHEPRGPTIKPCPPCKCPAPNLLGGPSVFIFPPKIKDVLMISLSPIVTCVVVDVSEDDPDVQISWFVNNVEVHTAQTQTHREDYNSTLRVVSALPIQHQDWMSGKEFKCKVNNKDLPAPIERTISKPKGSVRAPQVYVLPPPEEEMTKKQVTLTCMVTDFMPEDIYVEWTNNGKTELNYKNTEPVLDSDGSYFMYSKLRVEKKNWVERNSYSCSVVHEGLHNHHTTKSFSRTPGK

[2] = molecular target: T1, human CEA on cells; experiment: flow cytometry on CT26/CEA cells
[3] = molecular target: T2, full-length human CD137 (huCD137) (human, UniProt Q07011 24-255); experiment: flow cytometry on Hut78/huCD137 cells
T2 construct: On transduced Hut78 cells (Hut78/huCD137), transiently on HEK293 cells, or natively on PBMC/T cells; also called TNFRSF9; 4-1BB
T2 sequence (Q07011 24-255 limits assumed): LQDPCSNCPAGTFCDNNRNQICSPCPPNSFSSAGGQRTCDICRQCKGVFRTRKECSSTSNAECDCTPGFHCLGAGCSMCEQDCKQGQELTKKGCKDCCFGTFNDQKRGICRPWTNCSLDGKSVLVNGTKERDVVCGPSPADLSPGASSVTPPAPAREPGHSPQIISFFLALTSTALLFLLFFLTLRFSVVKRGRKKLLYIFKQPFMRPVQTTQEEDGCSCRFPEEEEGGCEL

[4] = molecular target: human CD137 ECD-mIgG2a (human); experiment: SPR, antibody captured on anti-human Fc surface; analyte taken as human CD137 ECD-mIgG2a
[5] = molecular target: human CD137 ECD-mIgG2a (human); experiment: SPR, human CD137 ECD-mIgG2a; remark: listed apart in the source
[6] = molecular target: T2, full-length human CD137 (huCD137); experiment: flow cytometry on Hut78/huCD137 cells; remark: listed apart in the source
[7] = molecular target: human CD137 ECD-mIgG2a (human); experiment: SPR, multispecific antibody captured on anti-human IgG Fc chip, human CD137 ECD-mIgG2a flowed over
Experimental: Briefly, anti-human IgG (Fc) antibody was immobilized on an activated CM5 biosensor chip (Cat.: BR100839, GE Life Sciences). Anti-huCD137 monoclonal antibodies or multispecific antibodies were flown through the chip surface and captured by anti-human IgG (Fc) antibody. […] The equilibrium dissociation constant (KD)) was calculated as the ratio koff/kₒₙ.

[8] = molecular target: T2, full-length human CD137 (huCD137); experiment: cell-based or functional assay
[9] = molecular target: T1, human CEA on cells; experiment: flow cytometry on CT26/CEA cells; remark: listed apart in the source
Text: (§1) Cell fluorescence was quantified using a flow cytometer (Guava easyCyte™ 8HT, Merck-Millipore, USA).

[10] = molecular target: T2, full-length human CD137 (huCD137); experiment: flow cytometry on Hut78/huCD137 cells; remark: listed apart in the source
Text: as §1

[11] = molecular target: human CD137 ECD-mIgG2a (human); experiment: SPR (BIAcore T-200): antibody captured on anti-human IgG (Fc) CM5 chip, human CD137 ECD-mIgG2a as analyte, 1:1 Langmuir fit
Experimental: Characterization of anti-huCD137 VH domain antibodies were made by SPR assays using BIAcore™ T-200 (GE Life Sciences). Briefly, anti-human IgG (Fc) antibody was immobilized on an activated CM5 biosensor chip (Cat.: BR100839, GE Life Sciences). Anti-huCD137 domain antibodies were flowed over the chip surface and captured by anti-human IgG (Fc) antibody. […] The equilibrium dissociation constant (KD) was calculated as the ratio koff/kₒₙ.

Binder | Kd [1] [nM] | EC50 [2] [µg/mL] | EC50 [3] [µg/mL] | Kd [4] [nM] | koff [4] [s⁻¹] | kon [4] [M⁻¹ s⁻¹] | Kd [5] [nM] | EC50 [6] [µg/mL] | Kd [7] [nM] | Functions EC50(ug/ml), PBMC based cytokine release assay [8] [µg/mL] | Functions Top, PBMC based cytokine release assay [8] | EC50 [9] [µg/mL] | EC50 [10] [µg/mL] | Kd [11] [nM] | koff [11] [s⁻¹] | kon [11] [M⁻¹ s⁻¹]
B1 | 360 | 0.75 | 0.57 | 360 | 0.00215 | 5970 | – | – | – | – | – | – | – | – | – | –
B2 | 78 | 3.78 | 2.28 | – | – | – | – | – | – | – | – | – | – | – | – | –
B3 | – | – | – | – | – | – | 669 | 3.23 | 649 | – | – | – | – | – | – | –
B4 | – | – | – | – | – | – | – | – | 164 | 0.233 | 1720 | 0.5 | 0.5 | 151 | 0.00604 | 39900
B5 | – | – | – | – | – | – | – | – | 21.4 | 0.0768 | 1950 | 0.21 | 0.21 | 21.4 | 0.000953 | 44600
